According to patent publication US20240010741A1 (MAB DISCOVERY, published 2024):
Positions count from the first letter of the chain named. Names and notes keep the numbering of the source.

B1: MAB-16-0346 (antibody, V domains shown)
VH: EVQLEESGGGLVQPGGSLRLSCAASGFDFSTNAVSWVRQAPGKGLEWVGSISAGSSGSTYYASWAKGRFTISKDTSKTTLYLQMNSLRAEDTATYFCARGYTYLTLWGQGTLVTVSS
VL: DIVMTQSPSSLSASVGDRVTITCQASHSISSTYLSWYQQKPGQAPKLLIYRASTLASGVPSRFSGSGSGTDFTLTISSLQPEDFATYYCQYTDYGSSYVSTFGQGTKVVIK
notes: humanized anti-CD40 IgG1-LALA antibody of the invention
B2: MAB-16-0464 (antibody, V domains shown)
VH: B1 VH with T31S, V34M, S50T, S52Y, S56N, S58N, Y60D, Y101A, T102S, L104F
VL: DIVMTQSPSSLSASVGDRVTITCQASESVVSNNRLAWYQQKPGQAPKLLIYLASTLPSGVPSRFSGSGSGTDFTLTISSLQPEDFATYYCAGYKSSSTDGTAFGQGTKVVIK
notes: Humanized IgG1-LALA (L234A, L235A in the human IgG1 Fc, EU numbering)
B3: MAB-16-0262 (antibody, V domains shown)
VH: EVQLEESGGGLVQPGGSLRLSCAASGFDFSTNAMCWVRQAPGKGLEWVACIAAGSSIITYYASWAKGRFTISKDTSKTTLYLQMNSLRAEDTAVYFCARGLSRFALWGQGTLVTVSS
VL: DIVMTQSPSSLSASVGDRVTITCQASQSISSYLSWYQQKPGQAPKLLIYLTSTLASGVPSRFSGSGSGTDFTLTISSLQPEDFATYYCQGYYSSSSYVSNGFGQGTKVVIK
notes: as for B2
B4: MAB-16-0451 (antibody, V domains shown)
VH: B3 VH with T31S, A33T, A52Y, I57G, I58S, T75I, V94T, A105S
VL: DIVMTQSPSSLSASVGDRVTITCQASQSISNYLAWYQQKPGQAPKLLIYDASKLASGVPSRFSGSGSGTDFTLTISSLQPEDFATYYCQGGDYYGSSYVVAFGGGTKVVIK
notes: as for B2
B5: MAB-16-0400 (antibody, V domains shown)
VH: EVQLEESGGGLVQPGGSLRLSCAASGIDFSRYFYMCWVRQAPGKGLEWVACIGPGVSGDTYYASWAKGRFTISGDTSKTTLYLQMNSLRAEDTATYFCARGVDYTYGDAGAAFNLWGQGTLVTVSS
VL: DIVMTQSPSSLSASVGDRVTITCQASQSISSYLAWYQQKPGQAPKLLIYRASILASGVPSRFSGSGSGTDFTLTISSLQPEDFATYYCQTYYSSRTYSYGSPNAFGQGTKVVIK
notes: as for B1
B6: MAB-16-0484 (antibody, V domains shown)
VH: EVQLEESGGGLVQPGGSLRLSCAASGIDFSRYYYICWVRQAPGKGPEWVACFANGDGSTYYASWAKGRFTISKDTSKTTLYLQMNSLRAEDTATYFCARGADYSGGAAAFNLWGQGTLVTVSS
VL: DIQMTQSPSSLSASVGDRVTITCQASQSISSRLAWYQQKPGQAPKLLIYRASTLASGVPSRFSGSGSGTDFTLTISSLQPEDFATYYCQDYYGSSTEYNAFGQGTKVVIK
notes: as for B1
B7: MAB-16-0267 (antibody, V domains shown)
VH: EVQLEESGGDLVQPGASLRLSCAASGFDFNSNAMSWVRQAPGKGLEWVASIYAGGSGSTYYASWAKGRFTISKDTSKTTLYLQMNSLRAEDTATYFCARGITRLPLWGQGTLVTVSS
VL: B6 VL with R32Y, R50D, T53K, D90G, Y91T, G93Y, S94G, E97T, Y98I, N99S
notes: as for B1
B8: MAB-16-0406 (antibody, V domains shown)
VH: B6 VH with I35M, F52Y, A53S, G105A
VL: B6 VL with Q27E, S30G, S31N, R32A, A34V, T53I, A100T
notes: as for B1
B9: CP-870,893 (antibody, V domains shown)
VH: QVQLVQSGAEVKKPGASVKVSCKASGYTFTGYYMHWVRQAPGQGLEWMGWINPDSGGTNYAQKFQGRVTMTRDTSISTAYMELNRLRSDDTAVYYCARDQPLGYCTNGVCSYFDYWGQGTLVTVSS
VL: DIQMTQSPSSVSASVGDRVTITCRASQGIYSWLAWYQQKPGKAPNLLIYTASTLQSGVPSRFSGSGSGTDFTLTISSLQPEDFATYYCQQANIFPLTFGGGTKVEIKR
B10: MAB-16-0489 (antibody, V domains shown)
VH: EVQLEESGGGLVQPGASLRLSCAASGIDFSRYFYVCWVRQAPGKGLEWVGCFANHDDSIYYAGWMNGRFTISKDTSKTTLYLQMNSLRAEDTATYFCARGVDYTVGYGGAAFNLWGQGTLVTVSS
VL: DIVMTQSPSSLSASVGDRVTITCQASQSIGSYLSWYQQKPGQAPKLLIYRATTLASGVPSRFSGSGSGTDFTLTISSLQPEDFATYYCQSYYRDSSSSAFGQGTKVVIK
notes: as for B1
B11: CD40L containing a mouse-IgG2a Fc-tag (AB Biosciences) (Fc fusion, UniProt P29965 113-261, looked up)
chain: MQKGDQNPQIAAHVISEASSKTTSVLQWAEKGYYTMSNNLVTLENGKQLTVKRQGLYYIYAQVTFCSNREASSQAPFIASLCLKSPGRFERILLRAANTHSSAKPCGQQSIHLGGVFELQPGASVFVNVTDPSQVSHGTGFTSFGLLKL
notes: not shown: mouse IgG2a Fc tag

Assays:
[1] = biological target: T1, cell-expressed CD40 (UniProt P25942 21-277, limits assumed); assay: cell binding on HEK-Blue-CD40L cells, Alexa-Fluor-488 anti-human IgG, high content imaging
T1 construct: whole, on cells; also called CD40 on HEK-Blue-CD40L cells; cell surface CD40
T1 sequence (P25942 21-277 limits assumed): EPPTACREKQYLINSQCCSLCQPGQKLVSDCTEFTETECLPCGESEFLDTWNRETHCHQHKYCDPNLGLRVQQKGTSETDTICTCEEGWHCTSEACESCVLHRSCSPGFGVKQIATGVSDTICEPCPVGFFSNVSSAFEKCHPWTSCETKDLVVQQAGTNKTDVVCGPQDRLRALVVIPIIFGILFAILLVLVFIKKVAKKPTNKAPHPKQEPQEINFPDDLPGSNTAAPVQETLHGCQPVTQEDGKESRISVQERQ
Experimental: Antibodies were added to final concentrations ranging from 1.25 μg/ml to 0.01 ng/ml in 5 μl medium. After 24h cells were washed three times with 25 μl wash buffer (PBS, 0.05% Tween) before Alexa-Fluor-488-conjugated goat anti-human-IgG (Jackson Laboratories) was added at a concentration of 0.8 μg/ml in 20 μl medium. Four hours later, 5 μl Hoechst dye in medium was added to a final concentration of 51.1 µg/ml. Fluorescent cell binding signals were measured using a CellInsight automated high content imager (Thermo Fisher Scientific). Fitting curves and EC50 calculation were obtained by using Excel (Microsoft) and XLfit (IDBS).

[2] = biological target: T2, recombinant CD40 protein (UniProt P25942 21-193, limits assumed); assay: CD40L competition ELISA: antibody (5 µg/ml) preincubated with recombinant CD40 (1.7 µg/ml), complex added to coated CD40L, detected with anti-human F(ab)2-peroxidase; a low signal means competition with CD40L
T2 construct: Construct not described; also called CD40 recombinant protein
T2 sequence (P25942 21-193 limits assumed): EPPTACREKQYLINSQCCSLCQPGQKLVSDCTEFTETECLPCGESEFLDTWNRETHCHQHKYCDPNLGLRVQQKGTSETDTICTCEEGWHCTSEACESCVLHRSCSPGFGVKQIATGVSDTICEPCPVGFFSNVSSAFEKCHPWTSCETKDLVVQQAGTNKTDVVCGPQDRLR
Experimental: Competition of humanized anti-CD40 IgG1-LALA monoclonal antibodies with CD40L binding to CD40 was tested using an ELISA assay. CD40L was coated to the surface of a 384-well Nunc™ MaxiSorp™ plate in a volume of 25 μl PBS and at a concentration of 1 μg/ml for one hour at room temperature. Antibodies were pre-incubated at a concentration of 5 μg/ml with recombinant CD40 protein at a concentration of 1.7 μg/ml in a total volume of 40 μl for 1.5 hours at room temperature in ELISA buffer (PBS, 0.5% BSA, 0.05% Tween). The Nunc™ MaxiSorp™ plate was washed three times with wash buffer (PBS, 0.1% Tween) and blocked for one hour at room temperature with PBS, 2% BSA, 0.05% Tween. After three washes in wash buffer, 25 μl of the antibody-CD40 complex were added to the Nunc™ MaxiSorp™ plate wells and incubated for one hour at room temperature. After 3 washes in wash buffer, wells were incubated with 25 μl of a 1:2000 dilution of anti-human peroxidase-linked, species specific F(ab) 2 Fragment from goat (AbD Serotec) in ELISA buffer for one hour at room temperature. Wells were washed six times with wash buffer and 30 μl/well TMB substrate solution (Invitrogen) were added. After 10 minutes at room temperature, 30 μl Stop solution (1M HCl) was added per well and absorbance at 450 and 620 nm wavelength was measured using a Tecan M1000 microplate reader.

[3] = biological target: T3, Recombinant cyno-CD40 protein (Acro Biosystems) (cynomolgus monkey (Macaca fascicularis), UniProt G7PG38 21-193); assay: ELISA on coated recombinant cynomolgus monkey CD40
T3 construct: also called cynomolgus monkey-CD40 protein; recombinant cynomolgus monkey CD40 recombinant protein
Experimental: Binding of humanized anti-CD40 IgG1-LALA monoclonal antibodies to cynomolgus monkey-CD40 protein was tested in a biochemical ELISA. Recombinant cyno-CD40 protein (Acro Biosystems) was incubated in a 384-well Nunc™ MaxiSorp™ plate at a concentration of 0.5 μg/ml in PBS for one hour at room temperature. After washing three times with wash buffer (PBS, 0.1% Tween), plates were blocked with PBS, 2% BSA, 0.05% Tween for one hour at room temperature. Plates were washed again three time with wash buffer and antibodies at concentrations ranging from 500 to 0.03 ng/ml in PBS, 0.5% BSA, 0.05% Tween were incubated for one hour at room temperature. After 3 washes in wash buffer, wells were incubated with 12.5 μl of a 1:3000 dilution of anti-human peroxidase-linked, species specific F(ab) 2 Fragment from goat (AbD Serotec) in ELISA buffer for one hour at room temperature. Wells were washed six times with wash buffer and 15 μl/well TMB substrate solution (Invitrogen) were added. After 10 minutes at room temperature 15 μl Stop solution (1M HCl) were added per well and absorbance at 450 and 620 nm wavelength was measured using a Tecan M1000 microplate reader. Fitting curves and EC50 calculation were obtained by using Excel (Microsoft) and XLfit (IDBS).

[4] = biological target: T4, soluble cynomolgus monkey CD40 monomeric protein (Acro Biosystems) (cynomolgus monkey, UniProt G7PG38 21-193); assay: SPR (Biacore T200), antibody captured via anti-human Fc on CM5 chip, soluble cynomolgus CD40 as analyte, Langmuir 1:1 model
T4 construct: May be the same reagent as m11; also called cynomolgus monkey CD40 protein
Experimental: (§1) a. The biochemical affinities of the antibodies of the invention was determined by surface plasmon resonance measurements. Antibodies were reversibly immobilized to a CM5 sensor chip surface via an anti-human Fc antibody. The kinetics of the interaction of immobilized antibodies with soluble human or cynomolgus monkey CD40 monomeric protein (Acro Biosystems) were analysed on a Biacore T200 SPR instrument. Kinetic data were determined using a Langmuir 1:1 binding model.
(§2) Biochemical affinities were measured by surface plasmon resonance on a Biacore T200 SPR instrument. Kinetic data were determined using a Langmuir 1:1 binding model.

[5] = biological target: soluble human CD40 monomeric protein (Acro Biosystems) (human, UniProt P25942 21-193); assay: SPR Biacore T200, antibody captured via anti-human Fc, soluble CD40 as analyte, 1:1 model
soluble human CD40 monomeric protein (Acro Biosystems), sequence (P25942 21-193 limits assumed): as above
Experimental: as §1, §2

[6] = biological target: T1, cell-expressed CD40; assay: flow cytometry on HEK-Blue-CD40L cells preincubated with isotype control IgG1-LALA, CD40L-mouse IgG2a Fc titrated, DyLight 405 anti-mouse IgG [Detection of CD40L binding]
Experimental: (§3) a. Binding of anti CD40 antibodies of the invention to HEK-Blue-CD40L™ cells in the presence of CD40L was tested to verify whether the antibodies bind to the CD40L binding site of cell surface CD40. […] CD40L containing a mouse-IgG2a Fc-tag (AB Biosciences) was added at concentration ranging from 10000 to 9.8 ng/ml and cells were incubated for 60 minutes at 4° C. Anti-CD40 antibodies and CD40L bound to cell-expressed CD40 were detected using secondary DyLight 405-conjugated anti-mouse IgG and Alexa Fluor 488-conjugated anti-human IgG (Jackson Laboratories) and analyzed using FACSVerse instrument (BD).

[7] = biological target: T1, cell-expressed CD40; assay: flow cytometry on HEK-Blue-CD40L cells preincubated with CP870,893 IgG1-LALA at EC90, CD40L-mouse IgG2a Fc titrated, DyLight 405 anti-mouse IgG [Detection of CD40L binding]
Experimental: as §3

Binder | EC50 [1] [ng/mL] | OD at 450 nm [2] [OD] | EC50 [3] [ng/mL] | Kd [4] [nM] | Kd [5] [nM] | EC50 (read off the curve) [6] [ng/mL] | EC50 (read off the curve) [7] [ng/mL]
B1 | 49.5 | 0.09 | 8.2 | – | – | – | –
B2 | 3 | 0.09 | 8 | 2.2 | 2.6 | – | –
B3 | 6.3 | 0.11 | 11.9 | 10.3 | 15.7 | – | –
B4 | 8.9 | 0.13 | 10.4 | 0.8 | 1.2 | – | –
B5 | 5.8 | 0.08 | – | – | – | – | –
B6 | 21.9 | 0.07 | 31.8 | – | – | – | –
B7 | 3.4 | 0.1 | 7 | – | – | – | –
B8 | 6.6 | 0.07 | 11.1 | – | – | – | –
B9 | – | – | 8 | – | 8.9 | – | –
B10 | 3.2 | 0.01 | – | – | – | – | –
B11 | – | – | – | – | – | ~200 | ~400
